Laboratory results as given in US20160083711.

System: fluorogenic peptide (MCA)Lys-Lys-Pro-Ala-Glu-Phe-Phe-Ala-Leu-Lys(DNP)

native cardosin B, sequence (chain, as listed by the source): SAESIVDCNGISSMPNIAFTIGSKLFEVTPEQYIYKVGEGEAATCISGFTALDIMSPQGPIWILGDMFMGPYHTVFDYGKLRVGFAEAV

native cardosin B showed a Km of 1.4 µM, a VMax of 6.36e-06 µmol/s and a kcat of 24 s⁻¹. It also gave a kcat/Km of 1.71e+07 M⁻¹ s⁻¹.
